Laboratory results as given in article PMC9482650, “Quantitative fragmentomics allow affinity mapping of interactomes” (Nature Communications, 2022).
Positions count from the first letter of the chain named.

T1: APBA1_2, Q02410
T1 sequence (Q02410 742-832, limits assumed, looked up): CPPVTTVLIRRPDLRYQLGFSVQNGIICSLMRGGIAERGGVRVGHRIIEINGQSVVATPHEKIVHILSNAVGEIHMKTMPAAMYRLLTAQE

T2: APBA2_2, Q99767
T2 sequence (Q99767 654-744, limits assumed, looked up): T1 sequence (Q02410 742-832, limits assumed, looked up) with R10K, R15K, P59A, H65Q, I66A, A70S, Y84F, A89G

T3: ARHGAP21, Q5T5U3
T3 sequence (Q5T5U3 45-169, limits assumed, looked up): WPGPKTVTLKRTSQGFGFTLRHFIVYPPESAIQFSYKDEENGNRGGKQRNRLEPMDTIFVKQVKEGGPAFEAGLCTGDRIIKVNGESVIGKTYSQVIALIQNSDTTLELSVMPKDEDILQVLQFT

T4: GRIP1_7, Q9Y3R0
T4 sequence (Q9Y3R0 999-1096, limits assumed, looked up): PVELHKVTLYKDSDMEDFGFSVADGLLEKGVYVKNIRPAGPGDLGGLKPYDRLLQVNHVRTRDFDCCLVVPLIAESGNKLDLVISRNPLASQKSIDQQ

T5: HTRA4, P83105
T5 sequence (P83105 378-476, limits assumed, looked up): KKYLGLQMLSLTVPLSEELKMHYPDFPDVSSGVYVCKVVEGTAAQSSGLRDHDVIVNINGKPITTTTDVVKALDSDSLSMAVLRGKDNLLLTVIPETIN

T6: MPDZ_10, O75970
T6 sequence (O75970 1624-1722, limits assumed, looked up): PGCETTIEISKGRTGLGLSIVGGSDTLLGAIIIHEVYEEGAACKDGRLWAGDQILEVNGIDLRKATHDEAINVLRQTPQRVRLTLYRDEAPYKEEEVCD

T7: MPDZ_5, O75970
T7 sequence (O75970 695-796, limits assumed, looked up): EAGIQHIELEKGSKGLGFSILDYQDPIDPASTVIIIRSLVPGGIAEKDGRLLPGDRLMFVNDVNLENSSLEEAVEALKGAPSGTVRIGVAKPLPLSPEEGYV

T8: MPP2, Q14168
T8 sequence (Q14168 180-250, limits assumed, looked up): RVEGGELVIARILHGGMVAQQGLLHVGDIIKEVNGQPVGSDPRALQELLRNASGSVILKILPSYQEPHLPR

T9: MPP6, Q9NZW5
T9 sequence (Q9NZW5 125-219, limits assumed, looked up): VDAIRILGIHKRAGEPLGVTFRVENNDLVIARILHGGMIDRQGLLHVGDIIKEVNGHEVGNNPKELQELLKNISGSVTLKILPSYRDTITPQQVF

T10: MPP7, Q5T2T1
T10 sequence (Q5T2T1 134-230, limits assumed, looked up): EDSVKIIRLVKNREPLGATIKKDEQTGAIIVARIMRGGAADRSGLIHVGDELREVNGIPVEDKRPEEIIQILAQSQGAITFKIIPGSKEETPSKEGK

T11: PCLO, Q9Y6V0
T11 sequence (Q9Y6V0 4491-4600, limits assumed, looked up): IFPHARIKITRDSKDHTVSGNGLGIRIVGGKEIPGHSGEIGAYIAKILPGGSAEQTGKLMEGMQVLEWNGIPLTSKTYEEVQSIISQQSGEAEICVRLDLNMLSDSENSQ

T12: SNTG2, Q9NY99
T12 sequence (Q9NY99 68-166, limits assumed, looked up): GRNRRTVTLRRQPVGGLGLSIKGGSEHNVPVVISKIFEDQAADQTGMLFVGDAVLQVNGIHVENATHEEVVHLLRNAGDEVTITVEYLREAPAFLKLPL


Tests used:
Experiment in all cases: holdup assay
Design in all cases: key: below the threshold = too weak to quantify, mostly under pKd 3.1 to 4
Settings in all cases: plain residues with an end cap or a label only (N-terminal biotin on a linker: ado-ado)
[1] = target: T1, APBA1_2, Q02410
[2] = target: T2, APBA2_2, Q99767
[3] = target: T3, ARHGAP21, Q5T5U3
[4] = target: DLG1_1, Q12959
[5] = target: DLG1_3, Q12959
[6] = target: T4, GRIP1_7, Q9Y3R0
[7] = target: GRIP2_3, Q9C0E4
Chain of GRIP2_3, Q9C0E4 (Q9C0E4 238-339): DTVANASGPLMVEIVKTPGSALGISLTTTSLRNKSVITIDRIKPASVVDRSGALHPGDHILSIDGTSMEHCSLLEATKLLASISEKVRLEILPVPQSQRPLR

[8] = target: GRIP2_4, Q9C0E4
Chain of GRIP2_4, Q9C0E4 (Q9C0E4 446-548): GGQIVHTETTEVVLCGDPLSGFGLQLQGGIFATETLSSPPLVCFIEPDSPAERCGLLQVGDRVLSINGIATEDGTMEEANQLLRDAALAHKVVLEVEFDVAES

[9] = target: GRIP2_5, Q9C0E4
Chain of GRIP2_5, Q9C0E4 (Q9C0E4 544-642): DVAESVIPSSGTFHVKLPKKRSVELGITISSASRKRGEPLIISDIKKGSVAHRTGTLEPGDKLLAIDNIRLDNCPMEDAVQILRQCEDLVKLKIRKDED

[10] = target: T5, HTRA4, P83105
[11] = target: IL16_1, Q14005
Chain of IL16_1, Q14005 (Q14005 210-306): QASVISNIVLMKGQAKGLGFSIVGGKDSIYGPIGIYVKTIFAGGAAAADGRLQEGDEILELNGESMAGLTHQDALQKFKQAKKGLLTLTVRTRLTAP

[12] = target: LAP2, Q96RT1
Chain of LAP2, Q96RT1 (Q96RT1 other isoform, or with tags, fused parts or gaps): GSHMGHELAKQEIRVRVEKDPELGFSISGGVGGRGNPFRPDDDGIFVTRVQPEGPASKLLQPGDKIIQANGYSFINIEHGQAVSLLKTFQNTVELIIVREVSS

[13] = target: LNX1_1, Q8TBB1
Chain of LNX1_1, Q8TBB1 (Q8TBB1 261-371): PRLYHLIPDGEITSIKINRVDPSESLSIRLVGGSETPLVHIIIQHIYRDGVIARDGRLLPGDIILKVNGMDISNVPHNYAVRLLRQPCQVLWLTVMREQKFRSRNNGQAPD

[14] = target: MAGI2_3, Q86UL8
Chain of MAGI2_3, Q86UL8 (Q86UL8 600-682): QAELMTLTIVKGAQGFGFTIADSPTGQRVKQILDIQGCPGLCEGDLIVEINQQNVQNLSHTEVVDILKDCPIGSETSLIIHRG

[15] = target: MAGI2_6, Q86UL8
Chain of MAGI2_6, Q86UL8 (Q86UL8 1141-1229): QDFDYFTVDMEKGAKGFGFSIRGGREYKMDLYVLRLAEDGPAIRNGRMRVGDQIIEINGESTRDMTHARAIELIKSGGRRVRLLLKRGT

[16] = target: MAGI3_2, Q5TCQ9
Chain of MAGI3_2, Q5TCQ9 (Q5TCQ9 398-503): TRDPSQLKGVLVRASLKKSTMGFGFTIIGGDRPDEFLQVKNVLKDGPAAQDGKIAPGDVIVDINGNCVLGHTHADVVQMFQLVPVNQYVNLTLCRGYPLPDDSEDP

[17] = target: T6, MPDZ_10, O75970
[18] = target: T7, MPDZ_5, O75970
[19] = target: T8, MPP2, Q14168
[20] = target: T9, MPP6, Q9NZW5
[21] = target: T10, MPP7, Q5T2T1
[22] = target: NHERF2_2, Q15599
Chain of NHERF2_2, Q15599 (Q15599 142-238): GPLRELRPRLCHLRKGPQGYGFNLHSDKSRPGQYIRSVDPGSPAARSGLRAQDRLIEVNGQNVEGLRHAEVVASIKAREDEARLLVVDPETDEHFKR

[23] = target: NHERF4_2, Q86UT5
Chain of NHERF4_2, Q86UT5 (Q86UT5 220-308): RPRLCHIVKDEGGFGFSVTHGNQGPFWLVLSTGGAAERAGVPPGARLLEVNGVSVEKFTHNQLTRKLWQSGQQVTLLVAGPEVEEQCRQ

[24] = target: T11, PCLO, Q9Y6V0
[25] = target: SCRIB_2, Q14160
Chain of SCRIB_2, Q14160 (Q14160 857-960): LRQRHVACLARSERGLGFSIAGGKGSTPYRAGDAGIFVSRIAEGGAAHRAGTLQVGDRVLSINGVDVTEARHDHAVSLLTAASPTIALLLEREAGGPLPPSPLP

[26] = target: T12, SNTG2, Q9NY99

Binder	pKd [1]	pKd [2]	pKd [3]	pKd [4]	pKd [5]	pKd [6]	pKd [7]	pKd [8]	pKd [9]	pKd [10]	pKd [11]	pKd [12]	pKd [13]	pKd [14]	pKd [15]	pKd [16]	pKd [17]	pKd [18]	pKd [19]	pKd [20]	other results
NLQEHSTTSV [RSBN1, Q5VWQ0]	3.58	below the threshold	below the threshold	3.5	3.76	below the threshold	below the threshold	below the threshold	below the threshold	below the threshold	below the threshold	3.72	below the threshold	below the threshold	4.16	4.38	below the threshold	below the threshold	below the threshold	3.69	pKd [21]: below the threshold; pKd [22]: 3.59; pKd [23]: below the threshold; pKd [24]: below the threshold; pKd [25]: below the threshold; pKd [26]: below the threshold
IPGKEFDTPL [PLCB1, Q9NQ66]	below the threshold	below the threshold	3.58	below the threshold	below the threshold	below the threshold	below the threshold	below the threshold	below the threshold	below the threshold	below the threshold	3.58	below the threshold	below the threshold	3.49	below the threshold	below the threshold	below the threshold	below the threshold	3.59	pKd [21]: below the threshold; pKd [22]: 5.1; pKd [23]: below the threshold; pKd [24]: below the threshold; pKd [25]: below the threshold; pKd [26]: below the threshold

Second part, led by results:

pKd [1]	pKd [2]	pKd [3]	pKd [4]	pKd [5]	pKd [6]	pKd [7]	pKd [8]	pKd [9]	pKd [10]	pKd [11]	pKd [12]	pKd [13]	pKd [14]	pKd [15]	pKd [16]	pKd [17]	pKd [18]	pKd [19]	pKd [20]	Binder	other results
3.99	below the threshold	4.16	below the threshold	below the threshold	below the threshold	below the threshold	below the threshold	below the threshold	4.39	below the threshold	below the threshold	below the threshold	below the threshold	below the threshold	below the threshold	below the threshold	below the threshold	below the threshold	below the threshold	HLRQQGSVEV [EPHB6, O15197]	pKd [21]: below the threshold; pKd [22]: below the threshold; pKd [23]: below the threshold; pKd [24]: below the threshold; pKd [25]: below the threshold; pKd [26]: below the threshold
below the threshold	below the threshold	below the threshold	below the threshold	below the threshold	below the threshold	below the threshold	below the threshold	below the threshold	below the threshold	below the threshold	3.74	below the threshold	below the threshold	below the threshold	below the threshold	below the threshold	below the threshold	below the threshold	3.69	DHLGGGGESM [TNRC6A, Q8NDV7]	pKd [21]: below the threshold; pKd [22]: below the threshold; pKd [23]: below the threshold; pKd [24]: below the threshold; pKd [25]: below the threshold; pKd [26]: below the threshold
